# Data from publication PMC10785082 (ACS Omega, 2023).
# What was measured:
# E3 ligase CDC20 = settings: read-out: KD for CDC20; cited from earlier work
# USP49 ZnF-UBD = target: T1, USP49 ZnF-UBD (Homo sapiens, UniProt Q70CQ1); experiment: SPR binding to USP49 ZnF-UBD
# T1 sequence (Q70CQ1 1-115): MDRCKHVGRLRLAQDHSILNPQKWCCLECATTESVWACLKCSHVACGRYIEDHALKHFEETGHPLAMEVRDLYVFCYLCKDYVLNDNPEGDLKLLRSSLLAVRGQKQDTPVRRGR
# USP3 ZnF-UBD = target: T2, USP3 ZnF-UBD (Homo sapiens, UniProt Q9Y6I4); experiment: SPR binding to USP3 ZnF-UBD
# T2 sequence (Q9Y6I4 1-131): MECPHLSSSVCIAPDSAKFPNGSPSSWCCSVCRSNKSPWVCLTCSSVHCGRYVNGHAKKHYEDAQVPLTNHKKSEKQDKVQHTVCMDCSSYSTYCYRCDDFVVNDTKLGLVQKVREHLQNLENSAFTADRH
# BRAP ZnF-UBD = target: T3, BRAP ZnF-UBD (Homo sapiens, UniProt Q7Z569); experiment: SPR binding to BRAP ZnF-UBD
# T3 sequence (Q7Z569 304-390): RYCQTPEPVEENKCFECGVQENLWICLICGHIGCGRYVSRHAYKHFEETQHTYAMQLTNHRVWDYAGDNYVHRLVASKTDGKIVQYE
# USP5 ZnF-UBD = target: T4, USP5 ZnF-UBD (Homo sapiens, UniProt P45974); experiment: SPR binding to USP5 ZnF-UBD
# T4 sequence (P45974 171-290): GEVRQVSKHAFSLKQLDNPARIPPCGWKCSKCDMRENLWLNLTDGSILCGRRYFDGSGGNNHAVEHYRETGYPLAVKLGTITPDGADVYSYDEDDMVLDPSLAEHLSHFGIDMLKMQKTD
# USP16 ZnF-UBD = USP16 ZnF-UBD (Homo sapiens, UniProt Q9Y5T5); experiment: SPR binding to USP16 ZnF-UBD
# USP13 ZnF-UBD = target: T5, USP13 ZnF-UBD (Homo sapiens, UniProt Q92995); experiment: SPR binding to USP13 ZnF-UBD
# T5 sequence (Q92995 183-307): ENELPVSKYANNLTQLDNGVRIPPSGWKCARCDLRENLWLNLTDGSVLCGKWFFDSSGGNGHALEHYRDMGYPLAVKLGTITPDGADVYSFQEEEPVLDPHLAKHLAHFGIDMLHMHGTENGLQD
# USP33 ZnF-UBD = target: T6, USP33 ZnF-UBD (Homo sapiens, UniProt Q8TEY7); experiment: SPR binding to USP33 ZnF-UBD
# T6 sequence (Q8TEY7 29-134): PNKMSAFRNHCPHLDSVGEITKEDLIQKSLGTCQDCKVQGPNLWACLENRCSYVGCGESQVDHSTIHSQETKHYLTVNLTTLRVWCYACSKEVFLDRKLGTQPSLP
# USP39 ZnF-UBD = target: T7, USP39 ZnF-UBD (Homo sapiens, UniProt Q53GS9); experiment: SPR binding to USP39 ZnF-UBD
# T7 sequence (Q53GS9 84-194): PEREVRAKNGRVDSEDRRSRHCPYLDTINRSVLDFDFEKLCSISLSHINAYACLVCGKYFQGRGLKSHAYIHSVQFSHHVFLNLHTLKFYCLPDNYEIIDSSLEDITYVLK
# HDAC6 ZnF-UBD = target: T8, HDAC6 ZnF-UBD (Homo sapiens, UniProt Q9UBN7); experiment: SPR binding to HDAC6 ZnF-UBD
# T8 sequence (Q9UBN7 1109-1215): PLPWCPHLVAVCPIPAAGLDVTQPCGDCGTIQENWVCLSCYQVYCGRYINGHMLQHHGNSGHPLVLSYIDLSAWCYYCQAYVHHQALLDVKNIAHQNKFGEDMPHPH
# USP20 ZnF-UBD = USP20 ZnF-UBD (Homo sapiens, UniProt Q9Y2K6); experiment: SPR binding to USP20 ZnF-UBD
# USP51 ZnF-UBD = target: T9, USP51 ZnF-UBD (Homo sapiens, UniProt Q70EK9); experiment: SPR binding to USP51 ZnF-UBD
# T9 sequence (Q70EK9 176-305): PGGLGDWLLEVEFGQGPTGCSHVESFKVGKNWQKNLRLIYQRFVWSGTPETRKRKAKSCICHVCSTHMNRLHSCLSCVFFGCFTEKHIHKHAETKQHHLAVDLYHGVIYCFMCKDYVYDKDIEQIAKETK
# USP20 ZnF-UBD, sequence (Q9Y2K6 1-141): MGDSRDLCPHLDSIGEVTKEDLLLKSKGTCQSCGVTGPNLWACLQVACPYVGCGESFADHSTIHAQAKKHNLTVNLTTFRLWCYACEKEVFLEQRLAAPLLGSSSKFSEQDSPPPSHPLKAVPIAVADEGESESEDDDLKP
# USP16 ZnF-UBD, sequence (Q9Y5T5 25-185): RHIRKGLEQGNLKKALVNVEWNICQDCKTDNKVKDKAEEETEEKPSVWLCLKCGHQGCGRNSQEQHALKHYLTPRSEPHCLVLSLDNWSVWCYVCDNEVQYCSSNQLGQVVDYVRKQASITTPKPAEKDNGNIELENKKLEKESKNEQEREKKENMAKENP
compound,measurement,setting,value
Cc1ncc([N+](=O)[O-])n1CCOC(=O)NC(Nc1ncccn1)C(Cl)(Cl)Cl (stereo not shown) [Apcin],Kd,E3 ligase CDC20,10 µM
"Ub-RGGdel: C-terminal RGG-deleted Ub construct, negative control in the SPR assay",KD (µM) USP49,USP49 ZnF-UBD,No binding
same,KD (µM) USP3,USP3 ZnF-UBD,No binding
same,KD (µM) BRAP,BRAP ZnF-UBD,No binding
same,KD (µM) USP5,USP5 ZnF-UBD,No binding
same,KD (µM) USP16,USP16 ZnF-UBD,No binding
same,KD (µM) USP13,USP13 ZnF-UBD,No binding
same,KD (µM) USP33,USP33 ZnF-UBD,No binding
same,KD (µM) USP39,USP39 ZnF-UBD,No binding
same,KD (µM) HDAC6,HDAC6 ZnF-UBD,No binding
same,KD (µM) USP20,USP20 ZnF-UBD,No binding
same,KD (µM) USP51,USP51 ZnF-UBD,No binding
O=C(O)CNc1ncnc2ccccc12 [Compound 25],Kd,USP3 ZnF-UBD; KD (µM) USP3,191 µM
